According to US20210246166A1 (Bayer, published 2021):
Numbered stars: 1 amine (or outer) side, 2 acyl side, 3 side chain; on linkers, the order of the positions; unused ones are H or OH. Bridge positions count the residues as written; N and C are the ends. Square brackets hold non-standard residues; d marks the D form. Ends that are not written are not given here. * marks the point of attachment. (N,N-diMe)A = (N,N-diMe)A, L-N,N-dimethylalanine, C[C@@H](C(=O)*)N(C)C; Leu(4-F) = 4-fluoroleucine, CC(C)(F)C[C@H](N[*:1])C(=O)[*:2]; Pro(4-spirocPr) = O=C(O)[C@@H]1CC2(CC2)CN1; Oic = O=C(O)[C@@H]1C[C@@H]2CCCC[C@@H]2N1; tBuAla = CC(C)(C)C[C@H](N)C(=O)O; Chg = N[C@H](C(=O)O)C1CCCCC1; Pen = CC(C)(S)[C@H](N)C(=O)O; NMePro = CN1CCC[C@H]1C(=O)*; NMeC = CN[C@@H](CS)C(=O)O; NMeA = CN[C@@H](C)C(=O)O; Ahx = NCCCCCC(=O)O; Sar = CNCC(=O)O

Experiments:
[1] = molecular target: T1, Recombinant human MASP1 enzyme (fragment corresponding to amino acids 297-699, C-terminal His Tag) (human, UniProt P48740 297-699); test: cell-based or functional assay
T1 sequence: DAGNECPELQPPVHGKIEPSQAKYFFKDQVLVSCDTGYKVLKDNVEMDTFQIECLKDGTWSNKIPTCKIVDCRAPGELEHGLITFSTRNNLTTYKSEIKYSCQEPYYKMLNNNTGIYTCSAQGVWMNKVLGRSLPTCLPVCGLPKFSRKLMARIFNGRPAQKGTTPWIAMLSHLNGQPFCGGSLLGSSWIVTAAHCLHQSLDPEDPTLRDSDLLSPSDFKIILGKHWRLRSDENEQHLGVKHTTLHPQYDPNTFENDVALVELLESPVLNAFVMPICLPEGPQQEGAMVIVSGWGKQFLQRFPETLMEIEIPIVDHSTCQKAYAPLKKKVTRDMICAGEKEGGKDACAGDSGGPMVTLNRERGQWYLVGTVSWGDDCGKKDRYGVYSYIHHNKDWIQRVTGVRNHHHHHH

[2] = molecular target: Recombinant human MASP2 enzyme (fragment corresponding to amino acids 297-686, C-terminal His Tag) (human, UniProt O00187 297-686); test: cell-based or functional assay
Sequence of Recombinant human MASP2 enzyme (fragment corresponding to amino acids 297-686, C-terminal His Tag) (O00187 other isoform, or with tags, fused parts or gaps limits assumed): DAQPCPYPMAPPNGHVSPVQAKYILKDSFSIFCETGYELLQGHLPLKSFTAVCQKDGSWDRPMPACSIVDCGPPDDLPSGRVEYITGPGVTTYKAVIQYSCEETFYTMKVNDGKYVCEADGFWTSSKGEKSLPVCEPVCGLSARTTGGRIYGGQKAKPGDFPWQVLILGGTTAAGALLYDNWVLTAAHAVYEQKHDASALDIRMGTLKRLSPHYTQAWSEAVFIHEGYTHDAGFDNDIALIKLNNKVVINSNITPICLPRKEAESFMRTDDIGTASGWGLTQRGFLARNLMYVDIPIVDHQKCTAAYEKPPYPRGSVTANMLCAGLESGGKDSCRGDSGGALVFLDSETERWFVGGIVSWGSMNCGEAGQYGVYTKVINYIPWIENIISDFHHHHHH

Binder	human MASP1 IC50 [1]	human MASP2 IC50 [2]
AICSRSNPPI[Pen]IPD-NH2 (disulfide 3-11; N-terminus assumed; SMILES CC[C@H](C)[C@H](NC(=O)[C@H](C)N)C(=O)N[C@H]1CSSC(C)(C)[C@@H](C(=O)N[C@H](C(=O)N2CCC[C@H]2C(=O)N[C@@H](CC(=O)O)C(N)=O)[C@@H](C)CC)NC(=O)[C@H]([C@@H](C)CC)NC(=O)[C@@H]2CCCN2C(=O)[C@@H]2CCCN2C(=O)[C@H](CC(N)=O)NC(=O)[C@H](CO)NC(=O)[C@H](CCCNC(=N)N)NC(=O)[C@H](CO)NC1=O) [AIC+SRSNPPI-(Pen)+IPD-NH2]	9.4 nM	480 nM
AICSRSLPP[Chg]CI-NH2 (disulfide 3-11; N-terminus assumed; SMILES CC[C@H](C)[C@H](NC(=O)[C@@H]1CSSC[C@H](NC(=O)[C@@H](NC(=O)[C@H](C)N)[C@@H](C)CC)C(=O)N[C@@H](CO)C(=O)N[C@@H](CCCNC(=N)N)C(=O)N[C@@H](CO)C(=O)N[C@@H](CC(C)C)C(=O)N2CCC[C@H]2C(=O)N2CCC[C@H]2C(=O)N[C@@H](C2CCCCC2)C(=O)N1)C(N)=O) [AIC+SRSLPP-(Chg)-C+I-NH2]	8.9 nM	92 nM
AICSRSLP[Pro(4-spirocPr)]ICIPD-NH2 (disulfide 3-11; N-terminus assumed; SMILES CC[C@H](C)[C@H](NC(=O)[C@H](C)N)C(=O)N[C@H]1CSSC[C@@H](C(=O)N[C@H](C(=O)N2CCC[C@H]2C(=O)N[C@@H](CC(=O)O)C(N)=O)[C@@H](C)CC)NC(=O)[C@H]([C@@H](C)CC)NC(=O)[C@@H]2CC3(CC3)CN2C(=O)[C@@H]2CCCN2C(=O)[C@H](CC(C)C)NC(=O)[C@H](CO)NC(=O)[C@H](CCCNC(=N)N)NC(=O)[C@H](CO)NC1=O) [AIC+SRSLP-((6S)-5-Azaspiro[2.4]heptane-6-carboxylic acid)-IC+IPD-NH2]	8.5 nM	33 nM
[Sar]ICSRS[tBuAla]PPICIPD-OH (disulfide 3-11; N-terminus assumed; SMILES CC[C@H](C)[C@H](NC(=O)CNC)C(=O)N[C@H]1CSSC[C@@H](C(=O)N[C@H](C(=O)N2CCC[C@H]2C(=O)N[C@@H](CC(=O)O)C(=O)O)[C@@H](C)CC)NC(=O)[C@H]([C@@H](C)CC)NC(=O)[C@@H]2CCCN2C(=O)[C@@H]2CCCN2C(=O)[C@H](CC(C)(C)C)NC(=O)[C@H](CO)NC(=O)[C@H](CCCNC(=N)N)NC(=O)[C@H](CO)NC1=O) [((N-Me)G)-IC+SRS-((tBu)A)-PPIC+IPD-OH]	8.8 nM	2600 nM
[Ahx]ICSRS[tBuAla]PPI[Pen]IP-NH2 (disulfide 3-11; N-terminus assumed; SMILES CC[C@H](C)[C@H](NC(=O)CCCCCN)C(=O)N[C@H]1CSSC(C)(C)[C@@H](C(=O)N[C@H](C(=O)N2CCC[C@H]2C(N)=O)[C@@H](C)CC)NC(=O)[C@H]([C@@H](C)CC)NC(=O)[C@@H]2CCCN2C(=O)[C@@H]2CCCN2C(=O)[C@H](CC(C)(C)C)NC(=O)[C@H](CO)NC(=O)[C@H](CCCNC(=N)N)NC(=O)[C@H](CO)NC1=O) [(Ahx)-IC+SRS-((tBu)A)-PPI-(Pen)+IP-NH2]	9.9 nM	16 nM
[Sar]ICSRSLP[Oic]I[Pen]I-NH2 (disulfide 3-11; N-terminus assumed; SMILES CC[C@H](C)[C@H](NC(=O)[C@H]1NC(=O)[C@H]([C@@H](C)CC)NC(=O)[C@@H]2C[C@@H]3CCCC[C@@H]3N2C(=O)[C@@H]2CCCN2C(=O)[C@H](CC(C)C)NC(=O)[C@H](CO)NC(=O)[C@H](CCCNC(=N)N)NC(=O)[C@H](CO)NC(=O)[C@@H](NC(=O)[C@@H](NC(=O)CNC)[C@@H](C)CC)CSSC1(C)C)C(N)=O) [((N-Me)G)-IC+SRSLP-(Oic)-I-(Pen)+I-NH2]	8.45 nM	295 nM
[dK]ICSRS[tBuAla]PPI[Pen]I-NH2 (disulfide 3-11; N-terminus assumed; SMILES CC[C@H](C)[C@H](NC(=O)[C@H]1NC(=O)[C@H]([C@@H](C)CC)NC(=O)[C@@H]2CCCN2C(=O)[C@@H]2CCCN2C(=O)[C@H](CC(C)(C)C)NC(=O)[C@H](CO)NC(=O)[C@H](CCCNC(=N)N)NC(=O)[C@H](CO)NC(=O)[C@@H](NC(=O)[C@@H](NC(=O)[C@H](N)CCCCN)[C@@H](C)CC)CSSC1(C)C)C(N)=O) [kIC+SRS-((tBu)A)-PPI-(Pen)+I-NH2]	10 nM	110 nM
AICSRSLPP[Chg]CIPD-NH2 (disulfide 3-11; N-terminus assumed; SMILES CC[C@H](C)[C@H](NC(=O)[C@H](C)N)C(=O)N[C@H]1CSSC[C@@H](C(=O)N[C@H](C(=O)N2CCC[C@H]2C(=O)N[C@@H](CC(=O)O)C(N)=O)[C@@H](C)CC)NC(=O)[C@H](C2CCCCC2)NC(=O)[C@@H]2CCCN2C(=O)[C@@H]2CCCN2C(=O)[C@H](CC(C)C)NC(=O)[C@H](CO)NC(=O)[C@H](CCCNC(=N)N)NC(=O)[C@H](CO)NC1=O) [AIC+SRSLPP-(Chg)-C+IPD-NH2]	9.8 nM	73.5 nM
ICSRS[tBuAla]PPI[Pen]IP-OH (disulfide 2-10; N-terminus assumed; SMILES CC[C@H](C)[C@H](N)C(=O)N[C@H]1CSSC(C)(C)[C@@H](C(=O)N[C@H](C(=O)N2CCC[C@H]2C(=O)O)[C@@H](C)CC)NC(=O)[C@H]([C@@H](C)CC)NC(=O)[C@@H]2CCCN2C(=O)[C@@H]2CCCN2C(=O)[C@H](CC(C)(C)C)NC(=O)[C@H](CO)NC(=O)[C@H](CCCNC(=N)N)NC(=O)[C@H](CO)NC1=O) [IC+SRS-((tBu)A)-PPI-(Pen)+IP-OH]	10 nM	400 nM
[(N,N-diMe)A]ICSRS[tBuAla]PPICIPD-NH2 (disulfide 3-11; N-terminus assumed; SMILES CC[C@H](C)[C@H](NC(=O)[C@H](C)N(C)C)C(=O)N[C@H]1CSSC[C@@H](C(=O)N[C@H](C(=O)N2CCC[C@H]2C(=O)N[C@@H](CC(=O)O)C(N)=O)[C@@H](C)CC)NC(=O)[C@H]([C@@H](C)CC)NC(=O)[C@@H]2CCCN2C(=O)[C@@H]2CCCN2C(=O)[C@H](CC(C)(C)C)NC(=O)[C@H](CO)NC(=O)[C@H](CCCNC(=N)N)NC(=O)[C@H](CO)NC1=O) [((N,N-diMe)A)-IC+SRS-((tBu)A)-PPIC+IPD-NH2]	8.3 nM	120 nM
[NMeA]ICSRS[tBuAla]PPICIPD-NH2 (disulfide 3-11; N-terminus assumed; SMILES CC[C@H](C)[C@H](NC(=O)[C@H](C)NC)C(=O)N[C@H]1CSSC[C@@H](C(=O)N[C@H](C(=O)N2CCC[C@H]2C(=O)N[C@@H](CC(=O)O)C(N)=O)[C@@H](C)CC)NC(=O)[C@H]([C@@H](C)CC)NC(=O)[C@@H]2CCCN2C(=O)[C@@H]2CCCN2C(=O)[C@H](CC(C)(C)C)NC(=O)[C@H](CO)NC(=O)[C@H](CCCNC(=N)N)NC(=O)[C@H](CO)NC1=O) [((N-Me)A)-IC+SRS-((tBu)A)-PPIC+IPD-NH2]	9.5 nM	440 nM
[Sar]ICSRSLP[Oic]I[Pen]IP-NH2 (disulfide 3-11; also: acetate salt) [((N-Me)G)-IC+SRSLP-(Oic)-I-(Pen)+IP-NH2 (Acetate)]	1.4 nM	37 nM
AICSRS[Leu(4-F)]PPICIPD-NH2 (disulfide 3-11; N-terminus assumed; SMILES CC[C@H](C)[C@H](NC(=O)[C@H](C)N)C(=O)N[C@H]1CSSC[C@@H](C(=O)N[C@H](C(=O)N2CCC[C@H]2C(=O)N[C@@H](CC(=O)O)C(N)=O)[C@@H](C)CC)NC(=O)[C@H]([C@@H](C)CC)NC(=O)[C@@H]2CCCN2C(=O)[C@@H]2CCCN2C(=O)[C@H](CC(C)(C)F)NC(=O)[C@H](CO)NC(=O)[C@H](CCCNC(=N)N)NC(=O)[C@H](CO)NC1=O) [AIC+SRS-((4-Fluoro)L)-PPIC+IPD-NH2]	8.9 nM	300 nM
[NMePro]ICSRS[tBuAla]PPICIPD-NH2 (disulfide 3-11; SMILES CC[C@H](C)[C@H](NC(=O)[C@@H]1CCCN1C)C(=O)N[C@H]1CSSC[C@@H](C(=O)N[C@H](C(=O)N2CCC[C@H]2C(=O)N[C@@H](CC(=O)O)C(N)=O)[C@@H](C)CC)NC(=O)[C@H]([C@@H](C)CC)NC(=O)[C@@H]2CCCN2C(=O)[C@@H]2CCCN2C(=O)[C@H](CC(C)(C)C)NC(=O)[C@H](CO)NC(=O)[C@H](CCCNC(=N)N)NC(=O)[C@H](CO)NC1=O) [((N-Me)P)-IC+SRS-((tBu)A)-PPIC+IPD-NH2]	9.3 nM	260 nM
ICSRS[tBuAla]PPI[NMeC]IPD-NH2 (disulfide 2-10; N-terminus assumed; SMILES CC[C@H](C)[C@H](N)C(=O)N[C@H]1CSSC[C@@H](C(=O)N[C@H](C(=O)N2CCC[C@H]2C(=O)N[C@@H](CC(=O)O)C(N)=O)[C@@H](C)CC)N(C)C(=O)[C@H]([C@@H](C)CC)NC(=O)[C@@H]2CCCN2C(=O)[C@@H]2CCCN2C(=O)[C@H](CC(C)(C)C)NC(=O)[C@H](CO)NC(=O)[C@H](CCCNC(=N)N)NC(=O)[C@H](CO)NC1=O) [IC+SRS-((tBu)A)-PP-I-((N-Me)C)+IPD-NH2]	10 nM	620 nM
